Laboratory results taken from patent publication US7211422B2, “Polypeptide having α-isomaltosylglucosaccharide synthase activity” (Kabushiki Kaisha Hayashibara Seibutsu Kagaku Kenkyujo, priority 2001, dated 2007).

B1: Enzyme of Strain A19: purified polypeptide having α-isomaltosylglucosaccharide-forming enzyme activity from Arthrobacter globiformis A19 (Experiment 3-3); contains SEQ ID NO: 3 (protein)
chain: APLGVQRAQFQSGSSYLVVEVLDDDLVHFELAGGGTAPGTGSPLFTTPQVAKHDYAGPDVFTQTGSVLQTAAMRIEVDPADLCVTATDITRTPNLVLHEACPADLGQAWKGLNITRSAMENAYGLGQQFFTGGSADGDWVGRTRTPGGTYGNAMVFDPENGPVGNTQIPVLFAVGDDNANYGLFVDQLYKQEWNLTGDPWTVRMWGDQVRWYLMSGDDLPDLRHDYMELTGTPPVPPKKAFGLWVSEFGYDNWSEVDNTIAGLRSADFPVDGAMLDVQWFGGVTADSDDTRMGTLDWDTSRFPDPAGKIADLAEDGVGIIPIEESYVGRNLPEHARMAADGYLVRSGCATCPPVYLTGNPWWGKGGMIDWTQPEAGAVWHDEQRQHLVDEGVLGHWLDLGEPEMYDPNDWTAGVIPGKHAHADYHNAYNLLWAQSIADGYADNGVQKRPFMLTRAAAAGIQRHGAGMWSADIGSTMKALGSQQNAQMHMSMSGIDYYGSDIGGFRREMADGDVNELYTQWFADSAWFDTPLRPHTDNLCNCLETSPDSIGDVASNRENLVRRYELAPYYYSLAHRAHQFGEPLAPPLVYYYQNDDHVREMGHQKMLGRDLLIAIVAGEGERERDVYLPAGEWIDIHTNERIQSTGQWIDNVPLWRDGVFTLPAYARAGAIIPKAFVDASTKDITGKREDAAVRNELIATVYADDVASDFTLYEDDGATTAYADGAVRTTQISQSLTNGVATVTVGAASGTYSGAPSTRPTVVELVTDGTQASTVSLGSVPLTEHANKAAFDAASSGWYNAGGGLVVAKAASSSVNTAKTFSFTLGEESVWATFSCENATTTFGQSVYVVGNVPQLGNWSPADAVKLEPSAYPTWTGVVRNLPPSSTVEWKCIKRQEAGLPNTADAWEPGGNNILSTPPSGSAGITTGAF
modifications: Arthrobacter globiformis A19
B2: Enzyme of Strain N75: purified polypeptide having α-isomaltosylglucosaccharide-forming enzyme activity from Bacillus globisporus N75 (Experiment 2-3); contains SEQ ID NO: 2 (protein)
chain: HVSALGNLLSSAVTGDTLTLTIDNGAEPNDDILVLQAVQNGILKVDYRPNGVAPSADTPMLDPNKTWPSIGAVINTASNPMTITTPAMKIEIAKNPVRLTVKKPDGTALLWEPPTGGVFSDGVRFLHGTGDNMYGIRSFNAFDSGGDLLRNSSTQAARAGDQGNSGGPLIWSTAGYGVLVDSDGGYPFTDEATGKLEFYYGGTPPEGRRYTKQDVEYYIMLGTPKEIMSGVGEITGKPPMLPKWSLGFMNFEWDLNEAELKNHVDTYRAKNIPIDGYAIDFDWKKYGENNYGEFAWNTANFPSAATTALKSQMDAKGIKMIGITKPRIATKDFSNNPTVQGTDAASGGYFYPGHSEYKDYFIPVFVRSIDPYNPAARSWFWNHSKDAFDKGIVGWWNDETDAVSSGGASYWFGNFTTGHMSQALYEGQRAYTSNAQRVWQTARTFYPGAQRYATTLWSGDIGIQYTKGERINWAAGMQEQRAVMLSSINNGQVKWGMDTGGFNQQDGTTNNPNPDLYARWMQFSALTPVFRVHGNNHQQRQPWYYGSTAEEASKEALQLRYSLIPYMYAYERSAYENGNGLVRPLMQEYPADANAKNYLDAWMFGDWLLAAPVVEKQQTSKEIYLPAGTWIDYNRGTVLTGGQKISYAVNPDTLTDIPLFIKKGAIIPSQKVQDYVGQAPVQTVDVDVFPNTAQSSFTYYDDDGSSYNYESGAYFKQLMTAQDNGSGALSFTLGAKTGTYSPALQSYIVKLHGAAGASVTSNGAALASYASLQALKASASEGWAKGKDIYGDVTYVKLSAGAAAAKAIAVTGNSPVSVADVQYEAEEASLSGNTTATKATVNTNHAGYTGSGFVDGLSNPGAAVTFYPKVKTGGDYNVSLRYANSTGAAKSVSIFVNGKRVKSTSLANLPNWDTWGTQAETLPLTAGTNVVTYKFYSDAGDTGSVNLDNITVPFAPAIGKYEAESAELSGGSTVNQNHWFYSGTAFVDGLTAPGAQVKYTVNAPAAGSYQIALRYANGTGAAKTLSTYVNGTKLGQTAFASPGGNWNVWQDSVQTVALAAGTNTIAFKYDAGDSGSGSVNLDRLLLSAAAPGVPVSEQNLLDNGGFERDPSQSSNWTEWHPASQAIAYGIDSGSGMNPPESPWAGDKRAYFYAAGPYQQSIHQTVSVPVNNAKYKFEAWVLLKNTTPTTARVEIQNYGGSPIFTNISKDGVWKYISVSDIQVTNGQIDIGFYVDSPGGTTLHIDDVRVTKQ
modifications: Bacillus globisporus N75

Assays:
[1] = Isoelectric point by isoelectrophoresis (2% ampholine gel); type: physicochemical; conditions: gel containing 2% (w/v) ampholine
Excerpt: Purified specimens of the polypeptide having α-isomaltosylglucosaccharide-forming enzyme activity from Bacillus globisporus C11 obtained by the method in Experiment 1-3, Bacillus globisporus N75 obtained by the method in Experiment 2–3, and Arthrobacter globiformis A19 obtained by the method in Experiment 3-3 were subjected to isoelectrophoresis using a gel containing 2% (w/v) ampholine commercialized by Amersham Biosciences K. K., Tokyo, Japan (old name, Amersham Pharmacia Biotech), and then measured pHs of protein bands and gel to determine their isoelectric points.

[2] = Test on reducing-power formation; type: biochemical; conditions: 1% (w/v) maltotetraose, 0.25 unit/g substrate, 35° C., pH 6.0 (pH 8.4 for A19)
Procedure: The following test was carried out to study whether the polypeptide having α-isomaltosylglucosaccharide-forming enzyme activity had the ability of forming reducing-power or not. To a 1% (w/v) aqueous solution of maltotetraose as a substrate was added 0.25 unit/g substrate, d.s.b., of either of purified polypeptide specimen of α-isomaltosylglucosaccharide-forming enzyme from Bacillus globisporus C11 obtained by the method in Experiment 1-3, Bacillus globisporus N75 obtained by the method in Experiment2-3, or Arthrobacter globiformis A19 obtained by the method in Experiment 3-3, and incubated at 35° C. and at pH 6.0, except that pH 8.4 was used for the enzyme from Arthrobacter globiformis A19. During the reaction, a portion of each reaction mixture was sampled at prescribed time intervals and measured for reducing power after keeping at 100° C. for 10 minutes to stop the enzymatic reaction. Before and after the enzymatic reaction, the reducing sugar content and total sugar content were respectively quantified by the Somogyi-Nelson method and anthrone-sulfuric acid method. The percentage of forming reducing power was calculated by the following equation: Percentage of forming reducing power (%)=(AR/AT−BR/BT)×100 Equation: • AR: Reducing sugar content after enzymatic reaction. • AT: Total sugar content after enzymatic reaction. • BR: Reducing sugar content before enzymatic reaction. • BT: Total sugar content before enzymatic reaction.

[3] = Thermal stability and pH stability (residual enzyme activity); type: physicochemical
Procedure: The thermal stability of the polypeptide having α-isomaltosylglucosaccharide-forming enzyme activity was determined by incubating the testing polypeptide solution in 20 mM acetate buffer, pH6.0 (in the case of the polypeptide from a strain A19, 20 m M Glycine-NaOH buffer, pH 8.0) at prescribed temperatures for 60 minutes in the presence or absence of 1 mM Ca^2+, cooling with water the resulting polypeptide solutions, and assaying the residual enzyme activity of each solution. The pH stability of the polypeptide having α-isomaltosylglucosaccharide-forming enzyme activity was determined by keeping the testing polypeptide solutions in 50 mM buffer having prescribed pHs at 4° C. for 24 hours, adjusting the pH of each solution to 6.0 (in the case of the polypeptide from a strain A19, pH 8.0), and assaying the residual enzyme activity of each solution. […] The thermal stability of the polypeptide having α-isomaltosylglucosaccharide-forming enzyme activity from a strain C11 was up to about 40° C. (in the absence of Ca^2+) and about 45° C. (in the presence of Ca^2+), and pH stability of about 5.0 to about 10.0. The thermal stability of the polypeptide having α-isomaltosylglucosaccharide-forming enzyme activity from a strain N75 was up to about 45° C. (in the absence of Ca^2+) and about 50° C. (in the presence of Ca^2+), and pH stability of about 5.0 to about 9.0. The thermal stability of the polypeptide having α-isomaltosylglucosaccharide-forming enzyme activity from a strain A19 was up to about 55° C. (in the absence of Ca^2+) and about 60° C. (in the presence of Ca^2+), and pH stability of about 5.0 to about 9.0.

[4] = Effect of temperature and pH on α-isomaltosylglucosaccharide-forming enzyme activity; type: biochemical; conditions: for Optimum pH: incubated at 35° C. for 60 minutes
Procedure: The two types of enzymatic activities described above were measured as following. The activity of α-isomaltosylglucosaccharide-forming enzyme was measured by the following assay: A substrate solution was prepared by dissolving maltotriose in 100 mM acetate buffer (pH 6.0) to give a concentration of 2% (w/v). A reaction mixture was prepared by mixing 0.5 ml of the substrate solution and 0.5 ml of an enzyme solution, and incubated at 35° C. for 60 minutes. After stopping the reaction by boiling for 10 minutes, the amount of maltose formed in the reaction mixture was determined by high-performance liquid chromatography (HPLC). One unit of α-isomaltosylglucosaccharide-forming activity was defined as the amount of the enzyme that forms one μmole of maltose per minute under the above conditions. HPLC was carried out using “SHODEX KS-801 column”, Showa Denko K. K., Tokyo, Japan, at a column temperature of 60° C. and a flow rate of 0.5 ml/minutes of water, and using “RI-8012”, a differential refractometer commercialized by Tosoh Corporation, Tokyo, Japan.
The effect of temperature and pH on the α-isomaltosylglucosaccharide-forming enzyme activity was examined in accordance with the assay for the α-isomaltosylglucosaccharide-forming enzyme activity under various temperature and pH conditions. The effect of temperature was conducted in the presence or absence of 1 mM Ca^2+. […] The optimum temperature of the polypeptide having α-isomaltosylglucosaccharide-forming enzyme activity from a strain C11 was about 45° C. (in the absence of Ca^2+) and about 50° C. (in the presence of Ca^2+) when incubated at pH 6.0 for 60 minutes, and the optimum pH was about 6.0 when incubated at 35° C. for 60 minutes. The optimum temperature of the polypeptide having α-isomaltosylglucosaccharide-forming enzyme activity from a strain N75 was about 50° C. (in the absence of Ca^2+) and about 55° C. (in the presence of Ca^2+) when incubated at pH 6.0 for 60 minutes, and the optimum pH was about 6.0 when incubated at 35° C. for 60 minutes. The optimum temperature of the polypeptide having α-isomaltosylglucosaccharide-forming enzyme activity from a strain A19 was about 60° C. (in the absence of Ca^2+) and about 65° C. (in the presence of Ca^2+) when incubated at pH 8.4 for 60 min, and the optimum pH was about 8.4 when incubated at 35° C. for 60 minutes.

Molecule	Isoelectric point [1]	Percentage of forming reducing power ([2]; reaction time 0 hour)	Percentage of forming reducing power ([2]; reaction time 1 hour)	Percentage of forming reducing power ([2]; reaction time 2 hours)	Percentage of forming reducing power ([2]; reaction time 4 hours)	Percentage of forming reducing power ([2]; reaction time 8 hours)	Thermal stability ([3]; in the absence of Ca2+, 20 mM Glycine-NaOH buffer pH 8.0, 60 minutes)	Thermal stability ([3]; in the presence of 1 mM Ca2+, 20 mM Glycine-NaOH buffer pH 8.0, 60 minutes)	Optimum temperature ([4]; in the absence of Ca2+, pH 8.4 for 60 minutes)	Optimum temperature ([4]; in the presence of 1 mM Ca2+, pH 8.4 for 60 minutes)	Optimum pH [4]	Thermal stability ([3]; in the presence of 1 mM Ca2+, 20 mM acetate buffer pH 6.0, 60 minutes)	Optimum temperature ([4]; in the absence of Ca2+, pH 6.0 for 60 minutes)	Optimum temperature ([4]; in the presence of 1 mM Ca2+, pH 6.0 for 60 minutes)
B1	about 4.3±0.5	0.0%	0.0%	0.1%	0.0%	0.1%	up to 55 °C	≤ 60 °C	about 60 °C	about 65 °C	about 8.4			
B2	about 7.3±0.5	0.0%	0.1%	0.0%	0.0%	0.1%					about 6.0	≤ 50 °C	about 50 °C	about 55 °C
